Results on six molecules are retold here after patent US10233474B2, “Materials and methods for producing 6-carbon monomers” (INVISTA North America S.á.r.l., priority 2014, dated 2019).

Assay type in all cases: biochemical
Data set [1] is described as follows: ω-transaminase activity, forward direction (adipate semialdehyde to 6-aminohexanoate). The conditions noted are these: cell free extract; 10 mM adipate semialdehyde, 10 mM L-alanine, pH 7.5, 25° C., 4 h; RP-HPLC. As to the method:
(§1) A nucleotide sequence encoding a His-tag was added to the nucleic acid sequences from Chromobacterium violaceum, Pseudomonas aeruginosa, Pseudomonas syringae, Rhodobacter sphaeroides, and Vibrio fluvialis encoding the ω-transaminases of SEQ ID NOs: 7, 8, 9, 10 and 12, respectively (see FIG. 6) such that N-terminal HIS tagged ω-transaminases could be produced. Each of the resulting modified genes was cloned into a pET21a expression vector under control of the T7 promoter and each expression vector was transformed into a BL21[DE3] E. coli host. The resulting recombinant E. coli strains were cultivated at 37° C. in a 250 mL shake flask culture containing 50 mL LB media and antibiotic selection pressure, with shaking at 230 rpm. Each culture was induced overnight at 16° C. using 1 mM IPTG.
(§2) The pellet from each induced shake flask culture was harvested via centrifugation. Each pellet was resuspended and lysed via sonication. The cell debris was separated from the supernatant via centrifugation and the cell free extract was used immediately in enzyme activity assays.
Enzyme activity in the forward direction (i.e., adipate semialdehyde to 6-aminohexanoate) was confirmed for the transaminases of SEQ ID NO 7, SEQ ID NO 8, SEQ ID NO 9, SEQ ID NO 10 and SEQ ID NO 12. Enzyme activity assays were performed in a buffer composed of a final concentration of 50 mM HEPES buffer (pH=7.5), 10 mM adipate semialdehyde, 10 mM L-alanine and 100 μM pyridoxyl 5′ phosphate. Each enzyme activity assay reaction was initiated by adding a cell free extract of the ω-transaminase gene product or the empty vector control to the assay buffer containing the adipate semialdehyde and incubated at 25° C. for 4 h, with shaking at 250 rpm. The formation of pyruvate was quantified via RP-HPLC.

Data set [2] in a line: ω-transaminase activity, reverse direction (6-aminohexanoate to adipate semialdehyde). The conditions noted are these: cell free extract; 10 mM 6-aminohexanoate, 10 mM pyruvate, pH 7.5, 25° C., 24 h; RP-HPLC. As to the method: as §1, §2
Enzyme activity assays in the reverse direction (i.e., 6-aminohexanoate to adipate semialdehyde) were performed in a buffer composed of a final concentration of 50 mM HEPES buffer (pH=7.5), 10 mM 6-aminohexanoate, 10 mM pyruvate and […] pyridoxyl 5′ phosphate. Each enzyme activity assay reaction was initiated by adding cell free extract of the ω-transaminase gene product or the empty vector control to the assay buffer containing the 6-aminohexanoate and incubated at 25° C. for 24 h, with shaking at 250 rpm. The formation of L-alanine from pyruvate was quantified via RP-HPLC.

A short description of data set [3]: carboxylate reductase activity (adipate semialdehyde to hexanedial). The conditions noted are these: purified enzyme with sfp phosphopantetheine transferase; 2 mM adipate semialdehyde, pH 7.5, room temperature, 20 min. As to the method:
The N-terminal His-tagged carboxylate reductase of SEQ ID NO 6 (see Example 2 and FIG. 6) was assayed using adipate semialdehyde as substrate. The enzyme activity assay was performed in triplicate in a buffer composed of a final concentration of 50 mM HEPES buffer (pH=7.5), 2 mM adipate semialdehyde, 10 mM MgCl2, 1 mM ATP and 1 mM NADPH. The enzyme activity assay reaction was initiated by adding purified carboxylate reductase and phosphopantetheine transferase or the empty vector control to the assay buffer containing the adipate semialdehyde and then incubated at room temperature for 20 min. The consumption of NADPH was monitored by absorbance at 340 nm.

For “SEQ ID NO 10: Rhodobacter sphaeroides ω-transaminase, N-terminal His-tagged”, the “ω-transaminase activity: conversion of L-alanine to pyruvate with adipate semialdehyde as substrate, against the empty vector control” value in data set [1] is on record as “accepted adipate semialdehyde as substrate”. Also, the “ω-transaminase activity: conversion of pyruvate to L-alanine with 6-aminohexanoate as substrate, against the empty vector control” value in data set [2] is on record as “accepted 6-aminohexanote as substrate”.

B1: SEQ ID NO 8: Pseudomonas aeruginosa ω-transaminase, N-terminal His-tagged (protein, listed as Pseudomonas aeruginosa)
chain: MNARLHATSPLGDADLVRADQAHYMHGYHVFDDHRVNGSLNIAAGDGAYIYDTAGNRYLDAVGGMWCTNIGLGREEMARTVAEQTRLLAYSNPFCDMANPRAIELCRKLAELAPGDLDHVFLTTGGSTAVDTAIRLMHYYQNCRGKRAKKHVITRINAYHGSTFLGMSLGGKSADRPAEFDFLDERIHHLACPYYYRAPEGLGEAEFLDGLVDEFERKILELGADRVGAFISEPVFGSGGVIVPPAGYHRRMWELCQRYDVLYISDEVVTSFGRLGHFFASQAVFGVQPDIILTAKGLTSGYQPLGACIFSRRIWEVIAEPDKGRCFSHGFTYSGHPVACAAALKNIEIIEREGLLAHADEVGRYFEERLQSLRDLPIVGDVRGMRFMACVEFVADKASKALFPESLNIGEWVHLRAQKRGLLVRPIVHLNVMSPPLILTREQVDTVVRVLRESIEETVEDLVRAGHR
modifications: N-terminal His tag
notes: Pseudomonas aeruginosa ω-transaminase, N-terminal His-tagged
Regarding B1, the “ω-transaminase activity: conversion of L-alanine to pyruvate with adipate semialdehyde as substrate, against the empty vector control” value in data set [1] was “accepted adipate semialdehyde as substrate”.

B2: SEQ ID NO: 6: Segniliparus rotundus carboxylate reductase, N-terminal His-tagged (protein, listed as Segniliparus rotundus)
chain: MTQSHTQGPQASAAHSRLARRAAELLATDPQAAATLPDPEVVRQATRPGLRLAERVDAILSGYADRPALGQRSFQTVKDPITGRSSVELLPTFDTITYRELRERATAIASDLAHHPQAPAKPGDFLASIGFISVDYVAIDIAGVFAGLTAVPLQTGATLATLTAITAETAPTLFAASIEHLPTAVDAVLATPSVRRLLVFDYRAGSDEDREAVEAAKRKIADAGSSVLVDVLDEVIARGKSAPKAPLPPATDAGDDSLSLLIYTSGSTGTPKGAMYPERNVAHFWGGVWAAAFDEDAAPPVPAINITFLPLSHVASRLSLMPTLARGGLMHFVAKSDLSTLFEDLKLARPTNLFLVPRVVEMLYQHYQSELDRRGVQDGTREAEAVKDDLRTGLLGGRILTAGFGSAPLSAELAGFIESLLQIHLVDGYGSTEAGPVWRDGYLVKPPVTDYKLIDVPELGYFSTDSPHPRGELAIKTQTILPGYYKRPETTAEVFDEDGFYLTGDVVAQIGPEQFAYVDRRKNVLKLSQGEFVTLAKLEAAYSSSPLVRQLFVYGSSERSYLLAVIVPTPDALKKFGVGEAAKAALGESLQKIARDEGLQSYEVPRDFIIETDPFTVENGLLSDARKSLRPKLKEHYGERLEAMYKELADGQANELRDIRRGVQQRPTLETVRRAAAAMLGASAAEIKPDAHFTDLGGDSLSALTFSNFLHDLFEVDVPVGVIVSAANTLGSVAEHIDAQLAGGRARPTFATVHGKGSTTIKASDLTLDKFIDEQTLEAAKHLPKPADPPRTVLLTGANGWLGRFLALEWLERLAPAGGKLITIVRGKDAAQAKARLDAAYESGDPKLAGHYQDLAATTLEVLAGDFSEPRLGLDEATWNRLADEVDFISHPGALVNHVLPYNQLFGPNVAGVAEIIKLAITTRIKPVTYLSTVAVAAGVEPSALDEDGDIRTVSAERSVDEGYANGYGNSKWGGEVLLREAHDRTGLPVRVFRSDMILAHQKYTGQVNATDQFTRLVQSLLATGLAPKSFYELDAQGNRQRAHYDGIPVDFTAESITTLGGDGLEGYRSYNVFNPHRDGVGLDEFVDWLIEAGHPITRIDDYDQWLSRFETSLRGLPESKRQASVLPLLHAFARPGPAVDGSPFRNTVFRTDVQKAKIGAEHDIPHLGKALVLKYADDIKQLGLL
modifications: N-terminal His tag
notes: Segniliparus rotundus carboxylate reductase, N-terminal His-tagged
As to B2, the “carboxylate reductase activity: consumption of NADPH (absorbance at 340 nm) with adipate semialdehyde as substrate, against the empty vector control” value in data set [3] is “accepted adipate semialdehyde as substrate”.

B3: SEQ ID NO 7: Chromobacterium violaceum ω-transaminase, N-terminal His-tagged (protein, listed as Chromobacterium violaceum)
chain: MQKQRTTSQWRELDAAHHLHPFTDTASLNQAGARVMTRGEGVYLWDSEGNKIIDGMAGLWCVNVGYGRKDFAEAARRQMEELPFYNTFFKTTHPAVVELSSLLAEVTPAGFDRVFYTNSGSESVDTMIRMVRRYWDVQGKPEKKTLIGRWNGYHGSTIGGASLGGMKYMHEQGDLPIPGMAHIEQPWWYKHGKDMTPDEFGVVAARWLEEKILEIGADKVAAFVGEPIQGAGGVIVPPATYWPEIERICRKYDVLLVADEVICGFGRTGEWFGHQHFGFQPDLFTAAKGLSSGYLPIGAVFVGKRVAEGLIAGGDFNHGFTYSGHPVCAAVAHANVAALRDEGIVQRVKDDIGPYMQKRWRETFSRFEHVDDVRGVGMVQAFTLVKNKAKRELFPDFGEIGTLCRDIFFRNNLIMRACGDHIVSAPPLVMTRAEVDEMLAVAERCLEEFEQTLKARGLA
modifications: N-terminal His tag
notes: Chromobacterium violaceum ω-transaminase, N-terminal His-tagged
For the molecule B3, the “ω-transaminase activity: conversion of L-alanine to pyruvate with adipate semialdehyde as substrate, against the empty vector control” value in data set [1] was “accepted adipate semialdehyde as substrate”. The “ω-transaminase activity: conversion of pyruvate to L-alanine with 6-aminohexanoate as substrate, against the empty vector control” value in data set [2] was “accepted 6-aminohexanote as substrate”.

B4: SEQ ID NO 12: Vibrio fluvialis ω-transaminase, N-terminal His-tagged (protein, listed as Vibrio fluvialis)
chain: MNKPQSWEARAETYSLYGFTDMPSLHQRGTVVVTHGEGPYIVDVNGRRYLDANSGLWNMVAGFDHKGLIDAAKAQYERFPGYHAFFGRMSDQTVMLSEKLVEVSPFDSGRVFYTNSGSEANDTMVKMLWFLHAAEGKPQKRKILTRWNAYHGVTAVSASMTGKPYNSVFGLPLPGFVHLTCPHYWRYGEEGETEEQFVARLARELEETIQREGADTIAGFFAEPVMGAGGVIPPAKGYFQAILPILRKYDIPVISDEVICGFGRTGNTWGCVTYDFTPDAIISSKNLTAGFFPMGAVILGPELSKRLETAIEAIEEFPHGFTASGHPVGCAIALKAIDVVMNEGLAENVRRLAPRFEERLKHIAERPNIGEYRGIGFMWALEAVKDKASKTPFDGNLSVSERIANTCTDLGLICRPLGQSVVLCPPFILTEAQMDEMFDKLEKALDKVFAEVA
modifications: N-terminal His tag
notes: Vibrio fluvialis ω-transaminase, N-terminal His-tagged
As to B4, the “ω-transaminase activity: conversion of L-alanine to pyruvate with adipate semialdehyde as substrate, against the empty vector control” value in data set [1] is given as “accepted adipate semialdehyde as substrate”. For the same molecule, the “ω-transaminase activity: conversion of pyruvate to L-alanine with 6-aminohexanoate as substrate, against the empty vector control” value in data set [2] was “accepted 6-aminohexanote as substrate”.

B5: SEQ ID NO 9: Pseudomonas syringae ω-transaminase, N-terminal His-tagged (protein, listed as Pseudomonas syringae)
chain: MSANNPQTLEWQALSSEHHLAPFSDYKQLKEKGPRIITRAEGVYLWDSEGNKILDGMSGLWCVAIGYGREELADAASKQMRELPYYNLFFQTAHPPVLELAKAISDIAPEGMNHVFFTGSGSEGNDTMLRMVRHYWALKGQPNKKTIISRVNGYHGSTVAGASLGGMTYMHEQGDLPIPGVVHIPQPYWFGEGGDMTPDEFGIWAAEQLEKKILELGVENVGAFIAEPIQGAGGVIVPPDSYWPKIKEILSRYDILFAADEVICGFGRTSEWFGSDFYGLRPDMMTIAKGLTSGYVPMGGLIVRDEIVAVLNEGGDFNHGFTYSGHPVAAAVALENIRILREEKIVERVRSETAPYLQKRLRELSDHPLVGEVRGVGLLGAIELVKDKTTRERYTDKGAGMICRTFCFDNGLIMRAVGDTMIIAPPLVISFAQIDELVEKARTCLDLTLAVLQG
modifications: N-terminal His tag
notes: Pseudomonas syringae ω-transaminase, N-terminal His-tagged
With B5, the “ω-transaminase activity: conversion of L-alanine to pyruvate with adipate semialdehyde as substrate, against the empty vector control” value in data set [1] was “accepted adipate semialdehyde as substrate”. For the same molecule, in data set [2], the “ω-transaminase activity: conversion of pyruvate to L-alanine with 6-aminohexanoate as substrate, against the empty vector control” value was “accepted 6-aminohexanote as substrate”.
